Patent US20040137000A1 (UNITED BIOMEDICAL, published 2004)

B1: chimeric B4 antibody (antibody, human IgG1, V domains shown)
VH: QVQLQQSGPELVKPGASVRMSCKASGYTFTDYVIHWVKQRTGQGLEWIGEIYPGSGSAYSNAKFKDKATLTADKSSNTAYMQLSSLTSEDSAVYFCARRGNGTGFAYWGQGTLVTVSA
VL: DIVLTQSPASLAVSLGQRATISCKAGQSVDYDGDSYMNWYQQKPGQPPKLLIYVASNLESGIPARFSGSGSGTDFTLNIHPVEEEDAATYYCQQSYKDPLTFGAGTKLELK
notes: Fully murine B4 variable regions joined to human IgG1 and human kappa constant regions; also called B4 chimeric antibody; chimeric antibody
B2: deimmunized B4 antibody DIVHv.4/VKv.3 produced by NS0 cells (antibody, human IgG1, V domains shown)
VH: QVQLVQSGAEVKKPGASVKVSCKASGYTFTDYVIHWVRQATGQGLEWIGEIYPGSGSAYSNSKFKDRVTITADKSTNTAYMELRSLRSDDTAVYFCARRGNGTGFAYWGQGTLVTVSS
VL: DIVLTQSPASLAVSPGQRATITCKAGQSVDYDGDSYMNWYQQKPGQPPKLLIYVASNLESGIPSRFSGSGSGTDFTLTINPVEENDTATYYCQQSYKDPLAFGPGTKVEIK
notes: Human IgG1 and human kappa constant regions; NS0 cells; also called DIVHv.4/V v.3

Experiments:
[1] = target: T1, recombinant soluble CD4 (rsCD4) (UniProt P01730 26-396, limits assumed); assay: ELISA, rsCD4 coated at 0.25 µg/ml
T1 construct: Bought reagent coated on ELISA plates at 0.25 µg/ml; also called solid-phase rsCD4
Description: Tween® 20 in PBS. Various dilutions of the chimeric antibody and the mouse antibody as the positive control were applied. Detection was with peroxidase conjugated goat anti-human IgG and sheep anti-mouse for chimeric and mouse antibodies respectively. Color was developed with OPD.
Both the chimeric and mouse antibodies provided increases in A₄₉₂ at all concentrations of antibodies when added to the solid-phase rsCD4. This assay confirmed that the cloned and sequenced heavy and light chain variable regions retained the correct recognition site.

[2] = target: T1, recombinant soluble CD4 (rsCD4); assay: ELISA on rsCD4
[3] = target: CD4 on the surface of host T cells (HIV receptor complex involving CD4) (UniProt P01730 26-458, limits assumed); assay: cell-based or functional assay

Row | Binder | fold reduction in A492 compared to the original mouse antibody [1] | fold reduction in binding compared to the chimeric antibody [2] | Antibody Conc (µg/ml) at 50% Inhibition; MT-2 microplaque neutralization, HIV-1 TH036 (PBL), clade E [3] | Antibody Conc (µg/ml) at 50% Inhibition; MT-2 microplaque neutralization, HIV-1 UG029 (PBL), clade A [3] | Antibody Conc (µg/ml) at 50% Inhibition; MT-2 microplaque neutralization, HIV-1 VL135 (PBL), clade B [3]
1 | B1 | 10 fold | – | – | – | –
2 | B2 | – | 5 fold | 0.63 µg/mL | 1.1 µg/mL | 0.48 µg/mL
